This series has as its system MS2 coat protein. The series is described as follows: apparent KD of MS2 coat protein; designed switch direction (-1 OFF switch, 1 ON switch): 1; higher = weaker reporter binding. The method, boiled down: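 On Illumina chips, designed RNA switches with common flanks were made by stalled E. coli RNA polymerase. Titrations with SNAP-549-labelled MS2 coat protein, doubling from 0.7 or 1.5 nM to 3 µM, were done with no input, with 200 uM small-molecule ligand, or with an oligonucleotide input. Apparent KD is the median per design over clusters, from curve fits of normalised cluster fluorescence.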

Setting [1] is: input ligand: microRNA oligo, concentration not stated.
Setting [2] is: Eterna round: R95, input ligand: FMN 200 uM.
The mark [3] stands for this setting: Eterna round: R95, input ligand: microRNA oligo, concentration not stated.
Setting [4] is: Eterna round: R95, input ligand: none.

“CGAGCCGGCACUGAGGAUAUUCAUAUUUAAACAUGAGGAUCACCCAUGUAGGCCAGAAGGCCUUGGGAGAAGGCAGGUCGGCUCC [salish99_ss2_r3_080] (Eterna round: R96, puzzle: Same State 2)”: the “apparent KD of MS2 coat protein” value amounted to 22.3 nM (input ligand: FMN 200 uM), 220 nM under setting [1] and 312 nM (input ligand: none).
On to “CGAGCCGGCACUGAGGAUAUUCAUAUUUAAACAUGAGGAUCACCCAUGUAGGCCAGAAGGCCUUGGGAGAAGGCAGGUCGGCUCC [salish99_ss2_r3_080] (puzzle: Same State 2)”, for which the “apparent KD of MS2 coat protein” value under setting [2] amounted to 22.6 nM, the “apparent KD of MS2 coat protein” value under setting [3] came out at 279 nM and the “apparent KD of MS2 coat protein” value under setting [4] is 480 nM.
As for “CGAUGUGAGUCAGGAUAUGGGUUAUCACUCCACAUGAGGAUCACCCAUGUAAAGAGGCCAAGGAGCCAGAAGGGACAUACAUCU [Zaorso] (Eterna round: R96, puzzle: Same State NG 2)”, the “apparent KD of MS2 coat protein” value (input ligand: FMN 200 uM) amounted to 1520 nM, the “apparent KD of MS2 coat protein” value under setting [1] was found to be 14.2 nM and the “apparent KD of MS2 coat protein” value (input ligand: none) stood at 50.8 nM.
“CGGCGCUGUCGAGAGGAUAUGCGGUGAUGGACAUGAGGAUCACCCAUGUUAGCGAUAGCAUCACGGUAGAAGGCUCUACGGCUGC [Soteed Omei mod 19] (puzzle: Same State 2)”: the “apparent KD of MS2 coat protein” value under setting [3] amounted to 9.83 nM.
Turning to “CGGCGCUGUCGAGAGGAUAUGCGGUGAUGGACAUGAGGAUCACCCAUGUUAGCGAUAGCAUUACGGUAGAAGGCUCUACAGUUGC [Soteed Omei mod 8] (puzzle: Same State 2)”, the “apparent KD of MS2 coat protein” value is, setting by setting: under setting [2], 19.2 nM; under setting [3], 74.9 nM; under setting [4], 66.9 nM.
Take “CGUAGGAUAUGCAGAGGAUCACCCUGUAGAAGGACGAUUACACAGGAUAUGCAGAGGAUCACCCUGUAGAAGGGUGACUAAUCU [pwkr ssNG3 DX 2xF5 +2xFMN.3] (Eterna round: R96, puzzle: Same State NG 3)”: the “apparent KD of MS2 coat protein” value came out at 25.8 nM (input ligand: FMN 200 uM), 34.4 nM under setting [1] and 55.7 nM (input ligand: none).
For the sequence “CGUCCAGCCUGAGCUGGACAAAAGCAUGUACAUGAGGAUCACCCAUGUUCAUGUACAAGCUUUUUGCUCGUCUUAGA [salish99_208a_r3_072] (puzzle: Sensor for hsa-mir-208a)”, the “apparent KD of MS2 coat protein” value by setting is: under setting [2], 477 nM; under setting [3], 15.3 nM; under setting [4], 432 nM.
With “CGUCCAGCCUGAGCUGGACAAAAGCAUGUACAUGAGGAUCACCCAUGUUCAUGUACAAGCUUUUUGCUCGUCUUAGU [salish99_208a_r3_073] (puzzle: Sensor for hsa-mir-208a)”, the “apparent KD of MS2 coat protein” value is, setting by setting: under setting [2], 557 nM; under setting [3], 14.5 nM; under setting [4], 646 nM.
Taken in the same sequence, the figures for “CGUCCGGCCUGAGCUGGACGGAUGCAUGUACAUGAGGAUCACCCAUGUUCAUGUGCAGGCUUUUUGCUCGUCUUGUG [salish99_mir208a_modof_jandersonlee_002] (puzzle: Sensor for hsa-mir-208a)” were 20.1 nM, 9.62 nM and 18.1 nM.
Turning to “CGUCCGGCCUGUGCUGGCCGGAAGCAUGUACAUGAGGAUCACCCAUGUUCAUGUGCUGGCUUUUUGCUCGUCUUGUG [salish99_mir208a_011] (puzzle: Sensor for hsa-mir-208a)”, the “apparent KD of MS2 coat protein” value under setting [2] was 13.9 nM, the “apparent KD of MS2 coat protein” value under setting [3] came to 11.1 nM and the “apparent KD of MS2 coat protein” value under setting [4] amounted to 14 nM.
Consider “CGUCCGGCCUGUGCUGGCCGGUCGCUUGUACAUGAGGAUCACCCAUGUUCUUGUGCUGGCUUUUUGCUCGUCUUGUG [salish99_mir208a_020] (puzzle: Sensor for hsa-mir-208a)”, for which the “apparent KD of MS2 coat protein” value under setting [2] was determined as 27.1 nM, the “apparent KD of MS2 coat protein” value under setting [3] came to 17.7 nM and the “apparent KD of MS2 coat protein” value under setting [4] was 31 nM.

The values are drawn from the supplement of paper PMC9170038.
